Changes are numbered by the printed parent chain.
B1: deJ415: deimmunized J415, heavy chain J415DIVH4 combined with light chain J415DIVK5; ATCC PTA-4174 (antibody, V domains shown)
VH: EVKLEESGGGLVQPGGSMKISCVASGFTFSNYWMNWVRQSPEKGLEWVAEIRSQSNNFATHYAESVKGRVIISRDDSKSSVYLQMNSLRAEDTAVYYCTRRWNNFWGQGTTVTVSS
VL: NIVMTQFPKSMSASAGERMTLTCKASENVGTYVSWYQQKPTQSPKMLIYGASNRFTGVPDRFSGSGSGTDFILTISSVQAEDLVDYYCGQSYTFPYTFGGGTKLEMK
B2: J415: murine monoclonal antibody to human PSMA; hybridoma ATCC HB-12109 (antibody, V domains shown)
VH: B1 VH with I20L, S87N, A94G, V95I, V112L
VL: B1 VL with A13I, A15V, M19V, T41E, S63T, G68A, A80T

Assays:
[1] = test system: LNCap membrane preparation; assay: ELISA for binding of J415 deimmunized antibodies to LNCap membrane preparation; set-up: species or system human
Description: The J415 deimmunized antibodies (including various combinations of the deimmunized light chain and heavy chain subunits) were tested in an ELISA for binding to LNCap membrane preparation following the protocol as detailed above. ELISA plates were coated with LNCap membrane preparation and blocked with 5% BSA in phosphate buffered saline. Doubling dilutions of the J415 chimeric antibody (murine variable heavy and light chain regions fused to human constant heavy and light chain regions, respectively) and the deimmunized antibodies were applied. Detection was with horseradish peroxidase conjugated goat anti-human IgG and donkey anti-mouse for chimeric and mouse antibodies respectively. Color was developed with o-phenylene diamine substrate.

LNCaP tumor sections = format: in vivo, mouse; settings: 131I-labeled, 4 to 6 days after intravenous injection
Description: For several animals (n=20), harvested tumor samples were immediately cooled in liquid nitrogen and frozen in embedding medium (O.C.T. 4583, Sakura Finetec, Torrance Calif.). Twenty micron sections were cut and the tumor sections were either fixed with acetone and placed in direct contact with a sheet of photographic film (Biomax, Kodak, Rochester, N.Y.) or stained with hematoxin/eosin prior to exposure of the film. Tumors from control animals were collected and cut into 10 μm sections. […] Non-specific binding was determined in the presence of 100 nM J591 MAb. These sections were then washed 3 times with PBS (containing 0.2% BSA) and once with Tris buffer prior to being fixed with acetone and then exposed to photographic film.

[2] = test system: PSMA-positive human LNCaP tumors; assay: Biodistribution of 111In labeled MAbs in nude mice bearing LNCaP tumors; format: in vivo, mouse
Description: Prior to use, the cells were trypsinized, counted and suspended in Matrigel (Collaborative Biomedical Products, Bedford, Mass.). Nu/Nu Balb C mice 8-10 weeks of age were inoculated, in the right and left flanks, with a suspension of 5×10^6 LNCaP cells in Matrigel (BD Biosciences, Bedford Mass.). After a period of 14-18 days, tumors (100-300 mg) had developed. The PSMA-negative DU145 and PC3 cells were implanted in nude mice in an identical manner.
The PSMA-positive and PSMA-negative tumor bearing mice were injected, via the tail vein, with 80 KBq of the iodinated MAb (400 MBq/mg) in 200 μL of PBS (pH 7.4, 0.2% BSA). Groups of animals (3-8/group) were sacrificed after 2, 4 or 6 days. The major organs and tumors were recovered. The tissue samples were weighed and counted, with appropriate standards in an automatic NaI(Tl) counter. These measured relative activity data (cpm) were background corrected and expressed as a percentage of the injected dose per gram (% ID/g). […] J415, J591 and 7E11 were labeled with ^111In (100 MBq/mg). 80 KBq of the ^111In labeled MAbs were injected in groups of animals. The % ID/g in various organs and tumor tissues was determined at 2-6 days post injection in a similar way as described for ^131I labeled MAbs.

Molecule	binding to LNCap cells as compared to the chimeric antibody [1]	intra-tumoral distribution pattern (LNCaP tumor sections)	kinetics of blood clearance [2]	tumor uptake over time [2]	tumor/blood ratios [2]
B1	equivalent binding				
B2		distinct preferential accumulation in areas of viable tumor	faster compared to 7E11	gradually increased with time and is quite similar to that of 7E11	significantly higher compared to that of 7E11

— patent publication US20060062793A1, “Modified antibodies to prostate-specific membrane antigen and uses thereof” (priority 2004, published 2006)
